The values below come from patent publication US20240083999A1 (TRUSTEES OF TUFTS COLLEGE, published 2024).

Experiment [1] addresses T1, human interleukin 6 (hIL-6) (human, UniProt P05231 30-212). Briefly: cell-based or functional assay.
Experiment [2] has as its target T2, mouse interleukin 6 (mIL-6) (mouse, UniProt P08505 25-211).
T2 construct: the whole entry is named; also called mouse IL-6; mouse IL6
T2 sequence: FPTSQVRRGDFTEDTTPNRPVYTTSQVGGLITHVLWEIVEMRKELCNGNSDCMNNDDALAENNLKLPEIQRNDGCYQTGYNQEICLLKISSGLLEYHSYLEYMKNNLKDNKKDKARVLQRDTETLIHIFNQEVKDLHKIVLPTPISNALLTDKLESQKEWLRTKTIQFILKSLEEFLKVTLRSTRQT
The experiment is described as follows: told from an in vivo STAT3 phosphorylation Western blot (FIG. 7), not a direct binding assay. The method, then:
Experiments were conducted to determine whether the representative anti-hIL-6 VHH antibody cross-reacted with mouse IL-6 in vivo. In this experiment, one group of C57BL/6 mice was injected intraperitoneally with 1 μg of mouse IL-6 (mIL-6) in PBS; another group of C57BL/6 mice was injected with 1 μg of mouse IL-6 (mIL-6) plus 0.4 μg anti-hIL-6 VHH antibody. The animals were euthanized 30 minutes post-injection; their livers were isolated; and protein was extracted. Western blot analyses were carried out to assess the phosphorylation of STAT3 using P-STAT3 Y705 antibody (1:1,000 dilution) and STAT3 antibody (1:2,000 dilution), (Cell Signaling Technology (CST), Danvers, MA). The results of the Western blot analysis to assess the cross-reactivity of the anti-hIL-6 VHH antibody in mIL-6-induced hepatic STAT activation are shown in FIG. 7.
(In general: Immunoblotting shows a protein as a band on a membrane.)

Experiment [3] has as its target T1, human interleukin 6 (hIL-6). The experiment is described as follows: dilution ELISA, plate-coated hIL-6. From the text:
Based on sequence analysis, five clonally-independent families of the anti-hIL-6 VHHs, i.e., having sequence homology derived from independent B cell origins, were obtained. One family represented the majority of VHH family members that strongly bound to hIL-6 as determined by ELISA; therefore, multiple variants of this family were also sequenced. The anti-hIL-6 VHH coding DNA of selected VHHs was re-cloned into E. coli expression vectors and the anti-hIL-6 VHH proteins were expressed and purified using standard methods. The purified anti-hIL-6 VHHs were subjected to dilution ELISA analysis to assess their apparent affinities for binding to hIL-6. […] (See, e.g., Mukherjee, J., et al., 2012 PLoS ONE, 7, e299411). The EC₅₀ value of JYK-D12 for binding hTL-6 as determined by ELISA was about 0.4 nM.
Maxisorp ELISA plates (Nunc; Thermo Fisher USA) coated with recombinantly produced hIL-6 protein (0.5-5 μg/ml) overnight at 4° C. were used for immuno-binding assays (ELISA). Plates were washed 3 times with 1×PBS+0.1% Tween, followed by washing 3 times with 1×PBS. Washed plates were blocked (4-5% non-fat dry milk in 1×PBS+0.1% Tween) for 1 hour at room temperature (RT) with rocking. Serially diluted (1:5) hIL-6 VHH binding molecules targeting hIL-6, diluted in blocking solution, were incubated for 1 hour at RT with rocking and washed as above. […]

B1: hIL-6-binding VHH JYK-A9 (Trx/JYK-A9/E) (VHH, not shown: large carriers)
VHH: QVQLVESGGGLVQAGDSLTLSCAASGRPFSSFAMGWFRQAPGKEREFVAAITWSRGTTHYADSVKGRFTISGDNAKNTVFLQMNSLKPEDTAVYYCAAADGWKVVSTASPAYDYWGQGTQVTVSS
In the case of B1, the “complete neutralization, 7TD1 cell proliferation (neutralization) assay” value (“complete neutralization” below) in experiment [1] was 2 µg/mL.

B2: hIL-6-binding VHH JYK-A1 (Trx/JYK-A1/E) (VHH, not shown: large carriers)
VHH: QLQLAETGGGLVQPGGSLRLSCAASGFTLDYYAVGWFRQAPGKEREGISCISSSDLKTYYADSVKGRFTISRDYAKSTVSLQMNSLKPEDTGVYYCAAGTWDLKFGYNISACVGSYEYDYWDQGTQVTVSS
Regarding B2, the “complete neutralization” value in experiment [1] stood at 0.0247 µg/mL.

B3: JYK-D12/JYK-D12 homodimer (VHH)
chain: QVQLVESGGGLVQPGGSLGLSCAASGFTLAYYGIGWFRQAPGKEREGVACISSSDLSTYYADSVKGRFTISRDNAKDTVYLQMNSLKPEDTAVYYCAAGTWDLKFGYSRSNCVRSYEYDYWGQGTQVTVSSGGGGSGGGGSGGGGSQVQLVESGGGLVQPGGSLGLSCAASGFTLAYYGIGWFRQAPGKEREGVACISSSDLSTYYADSVKGRFTISRDNAKDTVYLQMNSLKPEDTAVYYCAAGTWDLKFGYSRSNCVRSYEYDYWGQGTQVTVSS
notes: One polypeptide with two JYK-D12 units; also called VCR-108
For the molecule B3, the binding result in experiment [2] is recorded as “binds”. Moreover, the “effective dose against Tocilizumab, in vivo neutralization assay” value in experiment [1] is 1000 fold.

B4: hIL-6-binding VHH JYK-H9 (Trx/JYK-H9/E) (VHH, not shown: large carriers)
VHH: QLQLVETGGGLVQPGGSLRLSCAASGFTLDYYAIGWFRQAPGKEREGVSCLSSSDRSTYYVDSVKGRFTISRDDDKNTAYLQMNSLKPEDTATYYCAAGTWDLKWGYNISACVGSYEYDYWGQGTQVTVSS
Consider B4, for which the “complete neutralization” value in experiment [1] is 0.0027 µg/mL.

B5: hIL-6-binding VHH JYK-D12 (Trx/JYK-D12/E) (VHH)
VHH: QLQLVESGGGLVQPGGSLGLSCAASGFTLAYYGIGWFRQAPGKEREGVACISSSDLSTYYADSVKGRFTISRDNAKDTVYLQMNSLKPEDTAVYYCAAGTWDLKFGYSRSNCVRSYEYDYWGQGTQVTVSS
notes: Expressed in E. coli as Trx/VHH/E fusion; also called JYK-D12 sh.ab1; expression vector JYR-3; not shown: Trx fusion partner of the construct Trx/JYK-D12/E
As for B5, the EC50 (commonly the concentration that produces a half-maximal response) in experiment [3] was approximately 0.4 nM. Besides, in experiment [1], the “ED50, 7TD1 cell proliferation (neutralization) assay” value is less than 0.3 ng/mL and the “complete neutralization” value turned out to be 0.0009 µg/mL.
